target: T1, His-tagged PD-L1 protein (human, UniProt Q9NZQ7 19-238); assay: SPR, Biacore T200, full-length IgG, 1:1 interaction model
T1 construct: also called His-tagged antigen PD-L1 protein; human PD-L1; not shown: His tag
Source text: Binding data for each antibody was processed and fitted to 1:1 interaction model using Biacore T200 evaluation software. All experimental data could be well fitted to the model.

T1 sequence (Q9NZQ7 19-238 limits assumed): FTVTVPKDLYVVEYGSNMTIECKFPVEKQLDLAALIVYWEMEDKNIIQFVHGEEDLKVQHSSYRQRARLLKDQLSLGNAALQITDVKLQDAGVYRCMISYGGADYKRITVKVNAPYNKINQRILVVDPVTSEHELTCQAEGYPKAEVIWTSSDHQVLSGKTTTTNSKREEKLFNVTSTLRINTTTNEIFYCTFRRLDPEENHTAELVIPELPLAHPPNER

Kd [nM] | koff [s⁻¹] | kon [M⁻¹ s⁻¹] | Binder
0.769 | 0.000253 | 329000 | AS01790 (humanized full-length IgG) (antibody, V domains shown, Full-length IgG expressed in HEK293 cells, protein A purified) VH: EVQLVQSGAEVKKPGESLKISCKGSGYSFTSYSINWVRQMPGKGLEWMGYFYVGNGYTDYNEKFKGRVTMTRNTSISTAYMELSSLRSEDTAVYYCARGGLPYYFDYWGQGTLVTVSS VL: DIQMTQSPSTLSASVGDRVTITCKTSQDVNTAVAWYQQKPGKAPKLLIYWASTRHTGVPSRFSGSGSGTEFTLTISSLQPEDFATYYCQQHYNTPLTFGGGTKLEIKR
0.751 | 0.000276 | 367000 | AS02013 (humanized full-length IgG) (antibody, V domains shown, Full-length IgG expressed in HEK293 cells, protein A purified) VH: EVQLVQSGAEVKKPGESLKISCKGSGYSFTSYSINWVRQAPGKGLEWMGYFYVGNGYTDYNEKFKGRVTMTRNTSISTAYMELSSLRSEDTAVYYCARGGLPYYFDYWGQGTLVTVSS VL: DIQLTQSPSSLSASVGDRVTITCKTSQDVNTAVAWYQQKPGQAPRLLIYWASTRHTGVPSRFSGSGSGTDFTLTISSLQPEDFATYYCQQHYNTPLTFGGGTKLEIKR
1 | 0.000338 | 336000 | murine-human chimeric antibody derived from murine PDL1#10 (Chimeric IgG) (antibody, V domains shown, also called mouse-human chimeric antibody) VH: EVQLQQSGAELVRPGSSVKMSCKTSGYTFTSYSINWVKQRPGQGLEWIAYFYVGNGYTDYNEKFKGKATLTSDTSSSTAYMQLSSLTSEDSAIYFCARGGLPYYFDYWGQGTTLTVSS VL: DIVMTQSHKFMSTSVGDRVSITCKTSQDVNTAVAWYQQKPGHSPKLLFYWASTRHTGVPDRFTGGGSGTDYTLTISSVQAEDLALYYCQQHYNTPLTFGAGTRLELKR
0.461 | 0.000173 | 376000 | AS01814 (humanized full-length IgG) (antibody, V domains shown, Full-length IgG expressed in HEK293 cells, protein A purified) VH: QVQLVQSGSELKKPGASVKVSCKASGYTFTSYSINWVRQAPGKGLEWVAYFYVGNGYTDYNEKFKGRVTITADESTSTAYMELSSLRSEDTAVYYCARGGLPYYFDYWGQGTLVTVSS VL: DIQMTQSPSTLSASVGDRVTITCKTSQDVNTAVAWYQQKPGKAPKLLLYWASTRHTGIPARFSGSGSGTEFTLTISSLQSEDFAVYYCQQHYNTPLTFGGGTKLEIKR

target: T1, His-tagged PD-L1 protein; assay: SPR, Biacore T200, multi-cycle; Fab captured on chip, His-tagged PD-L1 as analyte
Method: A combinatorial humanization phage display library was constructed using the heavy chain and light chain variable domain sequences of mAb PDL1#10. Briefly, frameworks of human antibodies with high sequence identities to PDL1#10 were selected and assembled using overlapping PCR. This humanized Fab phage display library was panned against PD-L1 Fc-fusion protein. Individual output phage clones were amplified in 96-deep-well plates and the amplified phage were assayed by ELISA against PD-L1 Fc-fusion protein. […] DNAs encoding the Fab fragments of the output phage were amplified and inserted in pFASEBA vector (Genscript) for the screening of the best humanized antibody clones. Individual Fab clones were expressed in 96-deep-well plates and the crude protein secreted by E. coli to the medium was assayed by ELISA against BSA and the antigen PD-L1 protein for the assessment of expression and binding activity, respectively. Thousands of humanized clones were screened and a number of clones with slower off-rate were identified, amongst which 14 clones with the highest binding affinities were subjected to multi-cycle affinity measurement. The binding affinity of the 14 purified Fabs to His-tagged PD-L1 protein were determined using a Surface Plasmon Resonance (SPR) biosensor, Biacore T200 (GE Healthcare) for multi-cycle affinity measurements. Fabs were immobilized on the sensor chip through capture method. His-tagged antigen PD-L1 protein was used as the analyte. The data of dissociation (kd) and association (ka) rate constants were processed using Biacore T200 evaluation software. The equilibrium dissociation constants (KD) were calculated from the ratio of kd over ka.

Kd [nM] | koff [s⁻¹] | kon [M⁻¹ s⁻¹] | Binder
0.38 | 0.0002 | 500000 | AS02013 (humanized Fab) (Fab, V domains shown, Purified humanized Fab) VH: EVQLVQSGAEVKKPGESLKISCKGSGYSFTSYSINWVRQAPGKGLEWMGYFYVGNGYTDYNEKFKGRVTMTRNTSISTAYMELSSLRSEDTAVYYCARGGLPYYFDYWGQGTLVTVSS VL: DIQLTQSPSSLSASVGDRVTITCKTSQDVNTAVAWYQQKPGQAPRLLIYWASTRHTGVPSRFSGSGSGTDFTLTISSLQPEDFATYYCQQHYNTPLTFGGGTKLEIK
1.1 | 0.00039 | 360000 | AS01825 (humanized Fab) (Fab, V domains shown, Purified humanized Fab) VH: QMQLVQSGAEVKKTGSSVKVSCKASGYTFTSYSINWVRQMPGKGLEWMGYFYVGNGYTDYNEKFKGRVTITADESTSTAYMELSSLRSEDTAVYYCARGGLPYYFDYWGQGTLVTVSS VL: DIQLTQSPSFLSASVGDRVTITCKTSQDVNTAVAWYQQKPGKAPKLLIYWASTRHTGVPSRFSGSGSGTDFTLTISSLQPEDVATYYCQQHYNTPLTFGGGTKLEIK
1.5 | 0.00042 | 310000 | AS02002 (humanized Fab) (Fab, V domains shown, Purified humanized Fab) VH: QMQLVQSGAEVKKTGSSVKVSCKASGYTFTSYSINWVRQARGQRLEWIGYFYVGNGYTDYNEKFKGRVTITADESTSTAYMELSSLRSEDTAVYYCARGGLPYYFDYWGQGTLVTVSS VL: DIQMTQSPSSLSASVGDRVTITCKTSQDVNTAVAWYQQKPDQSPKLLIKWASTRHTGIPARFSGSGSGTEFTLTISSLQSEDFAVYYCQQHYNTPLTFGGGTKLEIK
1.1 | 0.00036 | 330000 | AS01789 (humanized Fab) (Fab, V domains shown, Purified humanized Fab) VH: EVQLVQSGAEVKKPGESLKISCKGSGYSFTSYSINWVRQAPGQALEWMGYFYVGNGYTDYNEKFKGRVTITRDTSASTAYMELSSLRSEDTAVYYCARGDLPFYFDYWGDGILVTVAS VL: DIVMTQSPDSLAVSLGERATINCKTSQDVNTAVAWYQQKPGQPPKLLIYWASTRHTGVPDRFSGSGSGTDFTLKISRVEAEDVGVYYCQQHYNTPLTFGGGTKLEIK
0.16 | 0.00011 | 680000 | AS01814 (humanized Fab) (Fab, V domains shown, Purified humanized Fab) VH: QVQLVQSGSELKKPGASVKVSCKASGYTFTSYSINWVRQAPGKGLEWVAYFYVGNGYTDYNEKFKGRVTITADESTSTAYMELSSLRSEDTAVYYCARGGLPYYFDYWGQGTLVTVSS VL: DIQMTQSPSTLSASVGDRVTITCKTSQDVNTAVAWYQQKPGKAPKLLLYWASTRHTGIPARFSGSGSGTEFTLTISSLQSEDFAVYYCQQHYNTPLTFGGGTKLEIK
1.4 | 0.00035 | 260000 | AS01807 (humanized Fab) (Fab, V domains shown, Purified humanized Fab) VH: QVQLVQSGSELKKPGASVKVSCKASGYTFTSYSINWVRQAPGKGLEWMGYFYVGNGYTDYNEKFKGRVTITRDTSASTAYMELSSLRSEDTAVYYCARGGLPYYFDYWGQGTLVTVSS VL: DIQMTQSPSSVSASVGDRVTITCKTSQDVNTAVAWYQQKPDQSPKLLIKWASTRHTGVPSRFSGSGSGTDFTLTISSLQPEDFATYYCQQHYNTPLTFGGGTKLEIK
0.4 | 0.00019 | 470000 | AS01979 (humanized Fab) (Fab, V domains shown, Purified humanized Fab) VH: EVQLVQSGAEVKKPGESLKISCKGSGYSFTSYSINWVRQAPGKGLEWMGYFYVGNGYTDYNEKFKGRVTMTRNTSISTAYMELSSLRSEDTAVYYCARGGLPYYFDYWGQGTLVTVSS VL: DIQMTQSPSSVSASVGDRVTITCKTSQDVNTAVAWYQQKPGQPPKLLIYWASTRHTGVPDRFSGSGSGTDFTLTISSLQAEDVAVYYCQQHYNTPLTFGGGTKLEIK
0.37 | 0.00017 | 450000 | AS01995 (humanized Fab) (Fab, V domains shown, Purified humanized Fab) VH: EVQLVQSGAEVKKPGESLKISCKGSGYSFTSYSINWVRQAPGKGLEWMGYFYVGNGYTDYNEKFKGRVTMTRNTSISTAYMELSSLRSEDTAVYYCARGGLPYYFDYWGQGTLVTVSS VL: DIQMTQSPSSVSASVGDRVTITCKTSQDVNTAVAWYQQKPGKAPKLLLYWASTRHTGVPSRFSGSGSGTDFTLTISSLQPEDVATYYCQQHYNTPLTFGGGTKLEIK
1.6 | 0.00045 | 290000 | AS01978 (humanized Fab) (Fab, V domains shown, Purified humanized Fab) VH: EVQLVQSGAEVKKPGESLKISCKGSGYSFTSYSINWVRQAPGKGLEWMGYFYVGNGYTDYNEKFKGRVTITTDESTSTAYMELSSLRSEDTAVYYCARGGLPYYFDYWGQGTLVTVSS VL: DIQLTQSPSSLSASVGDRVTITCKTSQDVNTAVAWYQQKPDQSPKLLIKWASTRHTGVPSRFSGSGSGTDFTLTISSLQPEDFATYYCQQHYNTPLTFGGGTKLEIK
0.93 | 0.00032 | 340000 | AS01817 (humanized Fab) (Fab, V domains shown, Purified humanized Fab) VH: EVQLVQSGAEVKKPGESLKISCKGSGYSFTSYSINWVRQAPGKGLEWMGYFYVGNGYTDYNEKFKGRVTITRDTSASTAYMELSSLRSEDTAVYYCARGGLPYYFDYWGQGTLVTVSS VL: DIQLTQSPSFLSASVGDRVTITCKTSQDVNTAVAWYQQKPGQPPKLLIYWASTRHTGVPSRFSGSGSGTDFTLTISSLQPEDFATYYCQQHYNTPLTFGGGTKLEIK
0.35 | 0.00017 | 500000 | AS01790 (humanized Fab) (Fab, V domains shown, Purified humanized Fab derived from PDL1#10 (pFASEBA vector, E. coli)) VH: EVQLVQSGAEVKKPGESLKISCKGSGYSFTSYSINWVRQMPGKGLEWMGYFYVGNGYTDYNEKFKGRVTMTRNTSISTAYMELSSLRSEDTAVYYCARGGLPYYFDYWGQGTLVTVSS VL: DIQMTQSPSTLSASVGDRVTITCKTSQDVNTAVAWYQQKPGKAPKLLIYWASTRHTGVPSRFSGSGSGTEFTLTISSLQPEDFATYYCQQHYNTPLTFGGGTKLEIK
0.29 | 0.00021 | 730000 | murine-human chimeric Fab (from mAb PDL1#10) (Fab, V domains shown) VH: EVQLQQSGAELVRPGSSVKMSCKTSGYTFTSYSINWVKQRPGQGLEWIAYFYVGNGYTDYNEKFKGKATLTSDTSSSTAYMQLSSLTSEDSAIYFCARGGLPYYFDYWGQGTTLTVSS VL: DIVMTQSHKFMSTSVGDRVSITCKTSQDVNTAVAWYQQKPGHSPKLLFYWASTRHTGVPDRFTGGGSGTDYTLTISSVQAEDLALYYCQQHYNTPLTFGAGTRLELKR
0.87 | 0.00054 | 620000 | AS01824 (humanized Fab) (Fab, V domains shown, Purified humanized Fab) VH: QVQLVQSGSELKKPGASVKVSCKASGYTFTSYSINWVRQAPGKGLEWVAYFYVGNGYTDYNEKFKGRVTITADESTSTAYMELSSLRSEDTAVYYCARGGLPYYFDYWGQGTLVTVSS VL: EIVMTQSPATLSVSPGERATLSCKTSQDVNTAVAWYLQKPGQSPQLLIYWASTRHTGVPSRFSGSGSGTDYTLTISSLQPEDFATYYCQQHYNTPLTFGGGTKLEIK
